The series concerns the target MSI1 RRM12 (human) (UniProt O43347). Put plainly: ITC. The following applies: ITC: 20 mM HEPES pH 7.5, 150 mM NaCl, 3 mM MgCl2, 25 C.
The mark [1] stands for this setting: 30 uM RNA in cell, 600 uM protein titrant.

MSI1 RRM12 (human), sequence (O43347 20-191): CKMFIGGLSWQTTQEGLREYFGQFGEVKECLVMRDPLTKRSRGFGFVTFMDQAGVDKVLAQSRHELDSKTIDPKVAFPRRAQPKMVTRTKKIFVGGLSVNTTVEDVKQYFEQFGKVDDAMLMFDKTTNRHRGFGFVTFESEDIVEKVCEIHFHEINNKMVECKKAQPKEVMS

A word on the Kd: it is the constant that tells how readily two partners part at equilibrium. Under setting [1], USUV 3'UTR gave a Kd of 301 µM.

For the substance ZIKV xrRNA2 deltaP4, the equilibrium dissociation constant (Kd) was 5.7 µM.

For ZIKV xrRNA1, the Kd ([…]) amounted to 94.6 µM.

In the case of ZIKV 3'UTR WT, the Kd was 2.5 µM.

With DENV4 3'UTR, the dissociation constant Kd under setting [1] was 336 µM.

MVEV 3'UTR had a Kd under setting [1] of 265 µM.

ZIKV 3'SL: the equilibrium dissociation constant (Kd) is 65.5 µM.

The substance JEV 3'UTR showed a dissociation constant Kd under setting [1] of 218 µM.

The values above are taken from PMC9972320.
